Measured values as given in the nanobody polyreactivity screen of Harvey et al. (2022).

experiment: yeast display, Sf9 membrane polyspecificity reagent, FACS + sequencing; frameworks hold sequencing errors
In short: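 A synthetic nanobody library was expressed on Saccharomyces cerevisiae BJ5465 by galactose induction for 36–48 hours. The library was stained for 1 hour at 4 °C with 10% biotinylated, detergent-solubilized Sf9 membrane reagent and enriched with streptavidin microbeads before FACS. Low and high (top ~1%) gates were set on anti-HA fluorescence for expression and streptavidin fluorescence for reagent binding, and each polyreactivity label reflects the gate of origin.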

Question: With “QVQLVESGGGLVQAGGSLRLSCAASGYTFKLYAMVWSRQAPGKERELVAAIRRGGTTNYADSVNGRFTISRDNSKNTVYFQMNSLKPADTAVYYCAADGWYPGFYYPYTEFDYWGQGTQVTVSS” as the sequence, how does the “polyreactivity (PSR sort gate)” value read?
Answer: high polyreactivity

Question: With “QVQLVESGGGLVQAGGSLRLSCAASGYTFKRYAMGWSRQAPGKERELVAAISSSGSSTYYADSVKGRFTISRDNAKNTVYLQMNSLKPEDTAVYYCAAVYRYGYWGQGTQVTVSS” as the sequence, how does the “polyreactivity (PSR sort gate)” value read?
Answer: high polyreactivity

Question: For “QVQLVESGGGLVQAGGSLRLSCAASGYTFKRYAMGWYRQPPGKERELVAAITSRGGNTYYADSVKGRFTISRDNAKNTVYLQMNSLKPEDTAVYYCAVGGWSAYHLSQMYYWGQGTQVTVSS”, which “polyreactivity (PSR sort gate)” value is on record?
Answer: high polyreactivity

Question: Which “polyreactivity (PSR sort gate)” value does the source give for “QVQLVESGGGLVQAGGSLRLSCAASGYTFKTNDMGRYRQAPGKEREFVAAIDSGGNTYYADSVKGRFTISRDNAKNTVYLQMNSVKPEDTAVYYCGAYRDYQYDYWGQGTQVTVSS” here?
Answer: low polyreactivity

Question: Which “polyreactivity (PSR sort gate)” value does the source give for “QVQLVESGGGLVQAGGSLRLSCAASGYTFKTYAMGWYIQAPGKERELVAAISGSGGSTYYADSVMGRFTISRDNAKNTVYLQLKSLKPEDTEVYYCAATNWWGTEYDYWGQGTQVTVSS” here?
Answer: high polyreactivity

Question: With “QVQLVESGGGLVQAGGSLRLSCAASGYTFLGYAMGWYRQAPGKERELVAAIRRSGGRTYYADSVKGRFTISRDNAKNTVYLQMNSLKPEDTAVYYCAKGYVGEYDYWGQGTQVTVSS” as the sequence, how does the “polyreactivity (PSR sort gate)” value read?
Answer: high polyreactivity

Question: Which “polyreactivity (PSR sort gate)” value does the source give for “QVQLVESGGGLVQAGGSLRLSCAASGYTFNKNTMGWYRQAPGKERELVAAISSSGGRTYYADSVKGRFTISRDNAKNTVYLQMNSLKPEDTAVYYCAARGYFKIHEYDYWGQGTQVTVSS” here?
Answer: high polyreactivity

Question: For “QVQLVESGGGLVQAGGSLRLSCAASGYTFPLYALGWYRQAPGKERELVADINIGGASTYYADSVKGRFTISRDNAKNTVYLQMNSLKPEDTAVYYCAKEYYDGFFPTFDYDYWGQVTQVTVSS”, which “polyreactivity (PSR sort gate)” value is on record?
Answer: low polyreactivity

Question: With “QVQLVESGGGLVQAGGSLRLSCAASGYTFPLYAMGWYRQAPGKERELVADINIGGASTYYADSVKGRFTISRDNAKNTVYLQKNSLKPEDTAVYYCAKEYYDGYFPTFDSDYWGQGTQVTVSS” as the sequence, how does the “polyreactivity (PSR sort gate)” value read?
Answer: low polyreactivity

Question: With “QVQLVESGGGLVQAGGSLRLSCAASGYTFQPYTMGWYRQAPGKERELVAAISKSGTRTYYADSVKGRFTISRDNEKNTVYLQMNSLKPEDTAVYYCAARYTGFLFDYWGQGTQVTVSS” as the sequence, how does the “polyreactivity (PSR sort gate)” value read?
Answer: high polyreactivity

Question: For “QVQLVESGGGLVQAGGSLRLSCAASGYTFQYNDMGWYRQAPGKERELVAGISIGGSTNYADSVKGRFTISRDNAKNTVYLQMNSLKPEDTAVYYCAARTLWFPGTTSTSVGYKYGYWGQGTQVTVSS”, which “polyreactivity (PSR sort gate)” value is on record?
Answer: low polyreactivity

Question: Which “polyreactivity (PSR sort gate)” value does the source give for “QVQLVESGGGLVQAGGSLRLSCAASGYTFRAYVMGWYRQAPGKERELVAGITRRGGTTYYADSVKGRFTISRDNAKNTVYLQMNSLKTEDTAVYYCNAVYRSGSIPYDSWGQGTQVTVSS” here?
Answer: high polyreactivity

Question: With “QVQLVESGGGLVQAGGSLRLSCAASGYTFRFNAMGWYRQAPGKEREFVAAIDFGGAGTYYADSVKGRFTISRDNAKNTVYLQMNSLKPEVTAVYYCNARDGVTTEFDYWGQGTQVTVSS” as the sequence, how does the “polyreactivity (PSR sort gate)” value read?
Answer: low polyreactivity

Question: With “QVQLVESGGGLVQAGGSLRLSCAASGYTFRHYAMGWYRQAPGKERELVAAISRSGGRTYYADSVKGRFTISRDNAKNTVYLHMNSLKPEDTAVYYCAADRVFGSSYLSGFDYWGQGTQGTVSS” as the sequence, how does the “polyreactivity (PSR sort gate)” value read?
Answer: low polyreactivity

Question: Which “polyreactivity (PSR sort gate)” value does the source give for “QVQLVESGGGLVQAGGSLRLSCAASGYTFRSYAMGWYRQAPGKEWEFVASISSSGGSTYYADSVKGRFTISRDNAKNTVYLQMNSLKPEDTAVYYCAASVVSYPYDEYDYWGQGTQVTVSS” here?
Answer: low polyreactivity

Question: For “QVQLVESGGGLVQAGGSLRLSCAASGYTFRTNVMGWYRPAPGKVWELVATINWRGGSTYYADSVKGRFTISRDNAKNTVYLQMNSLKPEDTAVYYCAKSYRYYRTMDYWGQGTQVTVSS”, which “polyreactivity (PSR sort gate)” value is on record?
Answer: low polyreactivity

Question: With “QVQLVESGGGLVQAGGSLRLSCAASGYTFRYAMGWYRQAPGKERELVAAISSRGSSTYYADSVKGRFTISRDNAKNTVYLQMNSLKPEDTAVYYCAAKHFVKGDYWGQGTQVTVSS” as the sequence, how does the “polyreactivity (PSR sort gate)” value read?
Answer: high polyreactivity

Question: With “QVQLVESGGGLVQAGGSLRLSCAASGYTFRYYAMGWYRQAPGKERELVAAISSGGSTYYADSVKGRFTISRDNAKNTVYLQMNSLKPEDTAVYYCATGPRIRYDYWGQGTQVTVSS” as the sequence, how does the “polyreactivity (PSR sort gate)” value read?
Answer: high polyreactivity

Question: For “QVQLVESGGGLVQAGGSLRLSCAASGYTFRYYGMGWYRQAPGKERELVADINSNGVRTYYADSVKGRFTISRDNAKNTVYLQMNSLKPEDTAVYYCNKDWGRYRYDYWGQGTQVNVSS”, which “polyreactivity (PSR sort gate)” value is on record?
Answer: high polyreactivity

Question: Which “polyreactivity (PSR sort gate)” value does the source give for “QVQLVESGGGLVQAGGSLRLSCAASGYTFRYYVMGWYRQAPGKERELVATISRGGRTNYADSVKGRFTISRDNAKNTVYLQMNSLKPEDTAVYYCNADWSRVPYRYDYWGQGTQVTVSS” here?
Answer: high polyreactivity

Question: Which “polyreactivity (PSR sort gate)” value does the source give for “QVQLVESGGGLVQAGGSLRLSCAASGYTFSANADMGWYRQAPGKESELVAAITGSGGITYYADSVKGRFTISRDNAKNTVYLQMNSLKPEDTAVYYCAAAVVDAAFDYWGQGTQVTVSS” here?
Answer: low polyreactivity

Question: For “QVQLVESGGGLVQAGGSLRLSCAASGYTFSFYAMGWYRQATGKERELVAAISRSGGSTYYADSVKGRFTISRDNAKNTVYLQMNSLKPEDTAVYYCAARWPGAYHEYGYWGQGTQVTVSS”, which “polyreactivity (PSR sort gate)” value is on record?
Answer: high polyreactivity

Question: For “QVQLVESGGGLVQAGGSLRLSCAASGYTFSGYAMGWYRQAPGKERELVAAITSSGGTTYYADSVKGRFTISRDNAKNTVYLQMNSLKPEDTAVYYCNAYYSHYGDTEDYYWGQGTQVTVSS”, which “polyreactivity (PSR sort gate)” value is on record?
Answer: high polyreactivity

Question: With “QVQLVESGGGLVQAGGSLRLSCAASGYTFSRNAMGWYRQAPGKERELVAAITGSGGSTYYADSVKGRFTISRDNAKNTVYLQMNSLKPEDTAVYYCATEVKRGYVGFDYWGQGTQVTVSS” as the sequence, how does the “polyreactivity (PSR sort gate)” value read?
Answer: low polyreactivity

Question: With “QVQLVESGGGLVQAGGSLRLSCAASGYTFSWYAMGWYRQAPGKERELVAGIDTSGGSTYYADSVKGRFTISRDNAKNTVYLQMNSLKPEDTAVYYCAAGLLWYSWGFWYYEYGYWGQGTQVTVSS” as the sequence, how does the “polyreactivity (PSR sort gate)” value read?
Answer: low polyreactivity

Question: For “QVQLVESGGGLVQAGGSLRLSCAASGYTFTHNAIGWYRQAPGKERELVATIRNSGSRTYYADSVKGRFTISRDNGKNTVYLQMNSLKPEDTAVYYCAARLLYRHFGYWGQGTQVTVSS”, which “polyreactivity (PSR sort gate)” value is on record?
Answer: high polyreactivity

Question: Which “polyreactivity (PSR sort gate)” value does the source give for “QVQLVESGGGLVQAGGSLRLSCAASGYTFTINAMGWYRQAPGKERELVAAISWNGGRTYYADSVKGRFTISRDNAKNTDYVQMNSLQPEDTAVCYCNADTYSAGDYWGQGTQVTVSS” here?
Answer: high polyreactivity

Question: Which “polyreactivity (PSR sort gate)” value does the source give for “QVQLVESGGGLVQAGGSLRLSCAASGYTFTIYSMGWYRQAPGKERELVAAISWNGGRTYYADSVKGRFTISRDNAKNTVYLKMNSLKPEDTAVYDCNADNFSAGDYWGQGTQVTVSS” here?
Answer: high polyreactivity

Question: With “QVQLVESGGGLVQAGGSLRLSCAASGYTFTQNAMGWYRQAPGKERELVASITSGGSTDYADSVKGRFTISRDNAKNTVYLQMNSLKPEDTAVYYCAKDYYAYSDYDYWGQGTQVTVSS” as the sequence, how does the “polyreactivity (PSR sort gate)” value read?
Answer: low polyreactivity

Question: Which “polyreactivity (PSR sort gate)” value does the source give for “QVQLVESGGGLVQAGGSLRLSCAASGYTFVDNAMGRYRQAPGKERELVAAINWDGASTYADSVKGRFTISRDNAKNTVYLQMNSLKPEDTAVYYCTASGKDIFNYVYQGYDYWGQGTQVTVSS” here?
Answer: low polyreactivity

Question: Which “polyreactivity (PSR sort gate)” value does the source give for “QVQLVESGGGLVQAGGSLRLSCAASGYTFVGYAMGWYRQAPGKERELVASISTGDSTYYADSVKGRFTISRDNAKNTVYLQMNSLKPEDTAVYYCAADFWEYEYPYDYWGQGTQVTVSS” here?
Answer: low polyreactivity

Question: With “QVQLVESGGGLVQAGGSLRLSCAASGYTFVYYAMGWYRQAPGKERELVAAITGNSGSTYADSVKGRFTISRDNAKNTVYLQMNSLNPEDTAVYYCAADQTGQDWYYVEFDYWGQGTQVTVSS” as the sequence, how does the “polyreactivity (PSR sort gate)” value read?
Answer: low polyreactivity

Question: For “QVQLVESGGGLVQAGGSLRLSCAASGYTFWANAMGRYRQAPGKERELVAAISWTGGSTYYADSVKGRFTISRDNAKNTVYLQMNSLKPEDTAVYYCNRARINTRVQTDDYWGQGTQVTVSS”, which “polyreactivity (PSR sort gate)” value is on record?
Answer: high polyreactivity

Question: Which “polyreactivity (PSR sort gate)” value does the source give for “QVQLVESGGGLVQAGGSLRLSCAASGYTFWAYAMGWYRQAPGKERELVAAITYRGGSTYYADSVKGRFTISRDNAKNTVYLQMNSLKPEDTAVYYCAAEGYYTGYWDLYDYWGQGTQVTVSS” here?
Answer: high polyreactivity

Question: With “QVQLVESGGGLVQAGGSLRLSCAASGYTFWAYTMGWSRQAPGKERELVAAISFSGGSTYYADSVKGRFTISRDNAKNTVYLLMNSLKPEDTAVYYCAADYLIEMDYWGQGTQVTVSS” as the sequence, how does the “polyreactivity (PSR sort gate)” value read?
Answer: low polyreactivity

Question: For “QVQLVESGGGLVQAGGSLRLSCAASGYTFWHYAMGWYRQAPGKEREFVATISSGGSTYYADSVKGRFTISRDNAMNTVYLQMNSLKPEDTAVYYCAADVDYIGPIYDYWGQGTQVTVSS”, which “polyreactivity (PSR sort gate)” value is on record?
Answer: low polyreactivity

Question: Which “polyreactivity (PSR sort gate)” value does the source give for “QVQLVESGGGLVQAGGSLRLSCAASGYTFWRYAMGWYRQAPGKERELVAAISASGGSTYYADSVKGRFTISRDNAKNTVYLQMNSLKPEDTAVYYCNAVSAYSYYVNYDYWGQGTQVTVSS” here?
Answer: high polyreactivity

Question: For “QVQLVESGGGLVQAGGSLRLSCAASGYTFYANAMGWYRQAPGKEREFVASITWSGGSTYYADSVKGRFTISRDNAKNNVYLQMHSLKPEDTAVYYCAAESWFKYDYWGQGTQVTVSS”, which “polyreactivity (PSR sort gate)” value is on record?
Answer: low polyreactivity

Question: For “QVQLVESGGGLVQAGGSLRLSCAASGYTFYANAMGWYRQAPGKEREFVASITWSGGSTYYPDSVKGRFTISRDNAKNTVYLQMNSLKPEDTAVYYCAAESWFKYDYWGQGTQETVSS”, which “polyreactivity (PSR sort gate)” value is on record?
Answer: low polyreactivity

Question: With “QVQLVESGGGLVQAGGSLRLSCAASGYTFYLYAMGWYRQAPGKESELVAAISTNGGRTYYADSVKGRFTISRDNAKNTVYLQMNSLKPEDTAVYYCAVRSRGTAPQYYYWGQGTQVTVSS” as the sequence, how does the “polyreactivity (PSR sort gate)” value read?
Answer: high polyreactivity

Question: With “QVQLVESGGGLVQAGGSLRLSCAASGYTFYPYAMGWYRQAPGKERELVAAISYSGGRTYYADSVKGRFTISRDNAKNTVYLQMNSLKPEDTAVYYCAADSGRYRMYYWGQGTQVTVSS” as the sequence, how does the “polyreactivity (PSR sort gate)” value read?
Answer: high polyreactivity

Question: For “QVQLVESGGGLVQAGGSLRLSCAASGYTFYQNAMGWYRQAPGKERELVAAITFRTGSTYYADSVKGRFTISRDNAKNTVYLQMNSLKPEDTAVYYCAATRFLRYWWYGYWGQGTQVTVSS”, which “polyreactivity (PSR sort gate)” value is on record?
Answer: low polyreactivity

Question: With “QVQLVESGGGLVQAGGSLRLSCAASGYTFYYYAMGWYRQAPGKEREFVAAISWRGGRTYYADSVKGRFTISRDNAKNTVYLQMNSLKPEDTAVYYCAARRDGWTFWKYDYWGQGTQVTVSS” as the sequence, how does the “polyreactivity (PSR sort gate)” value read?
Answer: high polyreactivity
